Article PMC8749958 (Science translational medicine, 2021)

Biological target: T1, recombinant human CD93 protein (R&D Systems) (human, UniProt Q9NPY3 24-580)
T1 sequence (looked up): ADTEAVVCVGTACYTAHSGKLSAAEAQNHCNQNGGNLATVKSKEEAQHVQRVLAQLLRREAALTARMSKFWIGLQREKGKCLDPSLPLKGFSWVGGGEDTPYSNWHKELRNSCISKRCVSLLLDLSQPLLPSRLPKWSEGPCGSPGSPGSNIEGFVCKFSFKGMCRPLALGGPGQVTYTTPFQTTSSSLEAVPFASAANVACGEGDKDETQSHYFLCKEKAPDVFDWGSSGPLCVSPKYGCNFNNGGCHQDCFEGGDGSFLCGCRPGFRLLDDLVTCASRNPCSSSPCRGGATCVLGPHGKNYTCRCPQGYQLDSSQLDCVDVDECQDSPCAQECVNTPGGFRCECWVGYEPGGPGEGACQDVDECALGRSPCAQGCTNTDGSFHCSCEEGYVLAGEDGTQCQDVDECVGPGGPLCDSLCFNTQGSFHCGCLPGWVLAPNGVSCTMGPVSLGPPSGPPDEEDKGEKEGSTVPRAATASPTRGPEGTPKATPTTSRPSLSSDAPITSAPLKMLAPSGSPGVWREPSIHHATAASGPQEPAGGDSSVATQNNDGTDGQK
Experiment: MST

Kd: 53.1 ± 20.2 nM
B1: IGFBP7 protein (R&D Systems), labelled for microscale thermophoresis (ligand, human, UniProt Q16270 27-282, looked up)
chain: SSSDTCGPCEPASCPPLPPLGCLLGETRDACGCCPMCARGEGEPCGGGGAGRGYCAPGMECVKSRKRRKGKAGAAAGGPGVSGVCVCKSRYPVCGSDGTTYPSGCQLRAASQRAESRGEKAITQVSKGTCEQGPSIVTPPKDIWNVTGAQVYLSCEVIGIPTPVLIWNKVKRGHYGVQRTELLPGDRDNLAIQTRGGPEKHEVTGWVLVSPLSKEDAGEYECHASNSQGQASASAKITVVDALHEIPVKKGEGAEL
modifications: fluorescent dye RED-tris-NTA 2nd Generation (Monolith His-Tag Labeling kit)
